The values below come from US20240255509A1, “COMPOSITIONS AND METHODS RELATED TO K180 DIMETHYLATED H1.0 PROTEIN” (Aelan Cell Technologies, Inc., priority 2016, published 2024).

Format in all cases: biochemical
Assay [1] concerns the target T1, K180me2 peptide (H1.0 AA 165-182) (Homo sapiens, UniProt P07305).
T1 construct: the K180me2 peptide (H1.0 AA 165-182) was used as a substrate; purchased ThermoFisher Scientific (peptide); NEB (G9A) M0235S (G9A)
The assay can be described thus: In vitro methylation with G9A, products identified by LC-MS. The conditions noted are these: K180me2 peptide as substrate. The method, then: In order to identify the precise sites of methylation by G9A and GLP methyltransferases on histone H1.0, in vitro methylation assays were performed and subsequently analyzed by Liquid Chromatography and High-resolution Mass Spectrometry (LC-MS) analysis. Methylation reactions were set up using either G9A methyltransferase (NEB, M0235S, Lot #0031201) or GLP methyltransferase (Cayman Chemical, 10755). The methyl donor in each reaction was unlabeled S-Adenosyl-L-Methionine (NEB, B9003S). The H1.0 substrate in each reaction was either unmodified H1.0 peptide labeled with biotin (ThermoFisher Scientific, Biotin-[…] (SEQ ID NO:75)), di-methylated H1.0 peptide (ThermoFisher Scientific, Biotin-[…]^(me2)PK (SEQ ID NO:76)), or full-length recombinant human H1.0 (NEB, M2501S). Methylation reactions were set up in triplicate for each condition as follows: 1×HMT reaction buffer (50 mM Tris-HCl, 5 mM MgCl2, 4 mM dithiothreitol, pH 9.0); 10 U G9A or GLP Methyltransferase; 3.2 mM S-Adenosyl-L-Methionine; 500 ng unmodified or modified H1.0 peptide, or 1 μg full-length protein; final volume 10 μl. As controls, reactions were set up as above but without any methyltransferase present. […]
(§1) For the Liquid Chromatography and High-resolution Mass Spectrometry (LC-MS) analysis, samples were prepared as described above and about 1 μg o the product was injected onto a Thermo Scientific Easy nLC system configured with a 10 cm×100 um trap column and a 25 cm×100 um ID resolving column. […] This ensured optimal full-scan data for quantification. […]
(§2) Protein identification was performed using Thermo Scientific Proteome Discoverer version 1.4 (including Sequest and Percolator algorithms) using RefSeqHuman sequence database. […] Protein quantification was performed using Pinpoint version 1.4 software. The Pinpoint quantification workflow included importing the Proteome Discoverer .msf files as spectral libraries. Identified peptides were subsequently quantified in MS .raw files using the Pinpoint peak finding, chromatographic alignment and area calculation algorithms. […]

The target of assay [2] is T2, recombinant human H1.0 protein (Homo sapiens, UniProt P07305).
T2 construct: full-length recombinant human H1.0 (NEB, M2501S); purchased NEB M2501S (H1.0); M0235S (G9A)
The assay is described as above. As to conditions: 1 μg full-length protein. The method, then:
(§3) In order to identify the precise sites of methylation by G9A and GLP methyltransferases on histone H1.0, in vitro methylation assays were performed and subsequently analyzed by Liquid Chromatography and High-resolution Mass Spectrometry (LC-MS) analysis. Methylation reactions were set up using either G9A methyltransferase (NEB, M0235S, Lot #0031201) or GLP methyltransferase (Cayman Chemical, 10755). The methyl donor in each reaction was unlabeled S-Adenosyl-L-Methionine (NEB, B9003S). […]
as §1, §2

The target in a further assay is T3, H1.0 peptide (Homo sapiens, UniProt P07305).
T3 construct: purchased ThermoFisher Scientific (peptide); NEB (G9A) M0235S (G9A)
Description: Radiolabel in vitro methylation assay with G9A. As to conditions: 10 U G9A, 37° C. 1 hour, autoradiography. The method, then:
In order to visualize methylation of H1.0 peptide by G9A methyltransferase in vitro, a methylation assay was performed incorporating a radiolabelled methyl donor, which allows for visualization of methylated peptide on a gel after autoradiography exposure. The following methylation reaction was set up in a 1.5 ml tube: 1×HMT reaction buffer (50 mM Tris-HCl, 5 mM MgCl2, 4 mM dithiothreitol, pH 9.0), 10 U G9A Methyltransferase (NEB, M0235S, Lot #0031201), 3.2 mM Adenosyl-L-Methionine, S-[Methyl-3H] (Perkin Elmer, NET155H, Lot #1664720), 10 μg H1.0 peptide (ThermoFisher Scientific, Biotin-[…] (SEQ ID NO:75)), final volume 10 μl. A control reaction as above but without H1.0 peptide was also created. Reactions were incubated in a thermocycler at 37° C. for 1 hour. Reactions were stopped by incubating on ice for 5 minutes, and subsequently resolved on a 16.5% Tricine gel (BioRad, 4563063). Gels were soaked in 30% methanol, 5% glycerol for 30 minutes before vacuum drying at RT for 24 hours. Autoradiography analysis of dried gels with a phosphorimager (Molecular Dynamics) was then performed to assess effective methylation of H1.0 peptide with methyl-3H groups by the G9A methyltransferase.
The methylation reaction was subsequently resolved on a gel and visualized via autoradiography. […] A control reaction lacking H1.0 peptide yielded no tritium-labeled products.

Assay [3] deals with T4, unmodified H1.0 peptide ([…] (SEQ ID NO:42)) (Homo sapiens, UniProt P07305).
T4 construct: purchased ThermoFisher Scientific (peptide); NEB (G9A) M0235S (G9A)
Description: In vitro methylation with G9A, products identified by LC-MS. The method, then: as §3, §1, §2

B1: G9A: recombinant G9A methyltransferase (NEB, M0235S) (protein, UniProt Q96KQ7 2-1210, looked up)
Histone-lysine …: AAAAGAAAAAAAEGEAPAEMGALLLEKETRGATERVHGSLGDTPRSEETLPKATPDSLEPAGPSSPASVTVTVGDEGADTPVGATPLIGDESENLEGDGDLRGGRILLGHATKSFPSSPSKGGSCPSRAKMSMTGAGKSPPSVQSLAMRLLSMPGAQGAAAAGSEPPPATTSPEGQPKVHRARKTMSKPGNGQPPVPEKRPPEIQHFRMSDDVHSLGKVTSDLAKRRKLNSGGGLSEELGSARRSGEVTLTKGDPGSLEEWETVVGDDFSLYYDSYSVDERVDSDSKSEVEALTEQLSEEEEEEEEEEEEEEEEEEEEEEEEDEESGNQSDRSGSSGRRKAKKKWRKDSPWVKPSRKRRKREPPRAKEPRGVNGVGSSGPSEYMEVPLGSLELPSEGTLSPNHAGVSNDTSSLETERGFEELPLCSCRMEAPKIDRISERAGHKCMATESVDGELSGCNAAILKRETMRPSSRVALMVLCETHRARMVKHHCCPGCGYFCTAGTFLECHPDFRVAHRFHKACVSQLNGMVFCPHCGEDASEAQEVTIPRGDGVTPPAGTAAPAPPPLSQDVPGRADTSQPSARMRGHGEPRRPPCDPLADTIDSSGPSLTLPNGGCLSAVGLPLGPGREALEKALVIQESERRKKLRFHPRQLYLSVKQGELQKVILMLLDNLDPNFQSDQQSKRTPLHAAAQKGSVEICHVLLQAGANINAVDKQQRTPLMEAVVNNHLEVARYMVQRGGCVYSKEEDGSTCLHHAAKIGNLEMVSLLLSTGQVDVNAQDSGGWTPIIWAAEHKHIEVIRMLLTRGADVTLTDNEENICLHWASFTGSAAIAEVLLNARCDLHAVNYHGDTPLHIAARESYHDCVLLFLSRGANPELRNKEGDTAWDLTPERSDVWFALQLNRKLRLGVGNRAIRTEKIICRDVARGYENVPIPCVNGVDGEPCPEDYKYISENCETSTMNIDRNITHLQHCTCVDDCSSSNCLCGQLSIRCWYDKDGRLLQEFNKIEPPLIFECNQACSCWRNCKNRVVQSGIKVRLQLYRTAKMGWGVRALQTIPQGTFICEYVGELISDAEADVREDDSYLFDLDNKDGEVYCIDARYYGNISRFINHLCDPNIIPVRVFMLHQDLRFPRIAFFSSRDIRTGEELGFDYGDRFWDIKSKYFTCQCGSEKCKHSAEAIALEQSRLARLDPHPELLPELGSLPPVNT
For B1, in assay [1], the “H1.0K166me1K180me2, % of the total peptide in the reaction” value is 1.27%; the “H1.0K174me1K180me3, % of the total peptide in the reaction” value came to 1.06%; the “H1.0K174me3K175me3K177me1K180me2, % of the total peptide in the reaction” value stood at 0.35%. The “sites of methylation on full-length H1.0” value in assay [2] is “methylates C-terminal lysine residues, including H1.0K180me2”. The “methylation of H1.0 peptide with tritium-labeled methyl groups (band at 4 kDa)” value with H1.0 peptide is given as “capable of methylating H1.0 peptide”. Besides, the “peptides dimethylated at H1.0K180, % of all peptides” value in assay [3] (10 U enzyme, 3.2 mM S-Adenosyl-L-Methionine, 37° C. 1 hour, spectral counts) is listed as 99.9%. Moreover, the “estimated methylation efficiency for K180 dimethylation” value in assay [3] (other lysines (K166, K174, K175 or K177) not dimethylated) is “about 99%”.
